# Test results from patent US20190194268A1 (DONALD DANFORTH PLANT SCIENCE CENTER, published 2019).
# Values joined by “and” are separate entries in the source; they are usually repeats but may differ in a detail not shown here. Equal values may be shown once. “Also recorded” adds a separate entry of the source. Read-outs that look alike come from different tables or passages of the source.
# B1: MtDef5FL1: Medicago truncatula protein with MtDef5 defensin peptides A and B connected by a 7-amino acid linker; SEQ ID NO:7, expressed in Pichia (protein, listed as Medicago truncatula)
# chain: CQKRSTTWSGPCLNTGNCKRQCINVEHATFGACHRQGFGFACFCYKKCAPKKVEPKLCERRSKTWSGPCLISGNCKRQCINVEHATSGACHRQGIGFACFCKKKC
# B2: MtDef5FL1_V1 (other)
# chain: KLCQAASTTWSGPCLNTGNCKRQCINVEHATFGACAAQGFGFACFCYKKCAPKKVEPKLCEAASKTWSGPCLISGNCKRQCINVEHATSGACAAQGIGFACFCKKKC
# notes: Alanine variant expressed in P. pastoris; also called MtDef5FL1 γ-core motif variant V1
# Legend:
# [1] = protein-lipid overlay (PIP Strips, PIP Array); assay type: binding; details: for binding to PI3P, PI4P and PI5P: Example 2, PIP Strips, 1 μg/ml protein, FIG. 9
# Method: (§1) To test the binding properties of MtDefS peptide A (MtDefS Peptide A; SEQ ID NO:4) and MtDef5FL1 (SEQ ID NO:7), a protein-lipid overlay experiment was performed using PIP Strips™ (2×6 cm nitrocellulose membranes) that are spotted with 100 pmol of various biologically active lipids (Echelon Biosciences, Salt Lake City, Utah). Briefly, lipid strips were blocked with 10 mL of blocking buffer, PBS-T/3% fat free BSA for 12-16 h at 4° C. with gentle agitation. The blocking buffer was discarded and the lipid strips were incubated with 5 mL of PBS-T/3% fat free BSA containing 1 μg/ml of MtDef5 peptide A or MtDef5FL1 for 60 min at 4° C. After hybridization, protein solution was discarded and the strips were then washed with PBS-T three times with gentle agitation for 20 minutes each at room temperature. The protein-lipid interactions were detected by subsequently incubating lipid strips with rabbit anti-MtDef5 peptide A derived synthetic peptide (1 μg/ml) diluted in 5 mL of blocking buffer with gentle agitation for 60 min at 4° C. The lipid strips were washed with PBS-T two times with gentle agitation, for 15 minutes each wash, at room temperature. HRP-conjugated Goat Anti-Rabbit IgG secondary antibody (Thermo Scientific, Cat no: SA 1-9510) diluted 1:4000 in blocking buffer was added to the lipid strips and incubated for 60 min at 4° C. After two washes with PBS-T, chemiluminescence was detected using SuperSignal® West Femto Maximum Sensitivity substrate kit (Thermo Scientific, Cat no: 34094) following the manufacturer's protocol.
# (§2) To test the binding properties of MtDef5 and its γ-core motif variants, a protein-lipid overlay experiment was performed using PIP Strips™ (2×6 cm nitrocellulose membranes) that are spotted with 100 pmol of various biologically active lipids, respectively (Echelon Biosciences, Salt Lake City, Utah). To determine relative degree of the binding of MtDef5, PIP Array (Echelon Biosciences, UT) pre-spotted with concentration gradient of various phosphoinositides was used. Briefly, lipid strips and arrays were blocked with 10 mL of blocking buffer, PBS-T/3% fat free BSA for 12-16 h at 4° C. with gentle agitation. The blocking buffer was discarded and the lipid strips and arrays were incubated with 5 mL of PBS-T/3% fat free BSA, containing 3 μg/ml of MtDef5 or its variants for 60 min at 4° C. […] The protein-lipid interactions were detected by subsequently incubating lipid strips and arrays with rabbit anti-MtDef5 derived synthetic peptide (1 μg/ml) antibody diluted in 5 mL of blocking buffer with gentle agitation for 60 min at 4° C. […] After two washes with PBS-T, chemiluminescence was detected using SuperSignal® West Femto Maximum Sensitivity substrate kit (Thermo Scientific, Cat no: 34094) following the manufacturer's protocol.
# F. graminearum PH-1 = assay type: cell-based, Fusarium graminearum
# [2] = protein-lipid overlay (PIP Strips); assay type: binding
# Method: as §1
# To test the binding properties of MtDef5 and its γ-core motif variants, a protein-lipid overlay experiment was performed using PIP Strips™ (2×6 cm nitrocellulose membranes) that are spotted with 100 pmol of various biologically active lipids, respectively (Echelon Biosciences, Salt Lake City, Utah). To determine relative degree of the binding of MtDef5, PIP Array (Echelon Biosciences, UT) pre-spotted with concentration gradient of various phosphoinositides was used. Briefly, lipid strips and arrays were blocked with 10 mL of blocking buffer, PBS-T/3% fat free BSA for 12-16 h at 4° C. with gentle agitation. The blocking buffer was discarded and the lipid strips and arrays were incubated with 5 mL of PBS-T/3% fat free BSA, containing 3 μg/ml of MtDef5 or its variants for 60 min at 4° C. After hybridization, protein solution was discarded and the strips and arrays were then washed with PBS-T three times with gentle agitation for 20 minutes each at room temperature. The protein-lipid interactions were detected by subsequently incubating lipid strips and arrays with rabbit anti-MtDef5 derived synthetic peptide (1 μg/ml) antibody diluted in 5 mL of blocking buffer with gentle agitation for 60 min at 4° C. The lipid strips and arrays were washed with PBS-T two times with gentle agitation, for 15 minutes each wash, at room temperature. HRP-conjugated Goat Anti-Rabbit IgG secondary antibody (Thermo Scientific, Cat no: SA 1-9510) diluted 1:4000 in blocking buffer was added to the lipid strips and arrays and incubated for 60 min at 4° C. After two washes with PBS-T, chemiluminescence was detected using SuperSignal® West Femto Maximum Sensitivity substrate kit (Thermo Scientific, Cat no: 34094) following the manufacturer's protocol.
# Fusarium culmorum = details: low salt in vitro assay conditions; U.S. Pat. No. 6,916,970; cited from earlier work
# Verticillium dahliae = details: low salt in vitro assay conditions; U.S. Pat. No. 6,916,970; cited from earlier work
# Botrytis cinerea = assay type: cell-based; details: Example 6, FIG. 15
# Alternaria brassicicola = assay type: cell-based; details: Example 6, FIG. 15
# Neurospora crassa = assay type: cell-based
# Fusarium virguliforme = assay type: cell-based
# [3] = protein cross-linking (BS3) oligomerization assay; details: SDS-PAGE, FIG. 19, FIG. 23
# Method: (§3) To determine the oligomeric status of MtDef5FL1 and its γ-core motif variants, protein cross-linking experiments were performed in the presence or absence of PIPs cross-linked with bis[sulfosuccinimidyl] suberate (BS3) substrate. Briefly, MtDef5 and its γ-core motif variants, prepared in 1× PBS buffer, at 1.5 mg/ml (5 μl) were incubated with 2.73 mM PI(3)P or PI(4)P or PI(5)P (1.5 μl) at room temperature for 30 min. The cross-linking reaction was initiated by addition of freshly dissolved water soluble 12.5 mM BS3 (0.5 μl) and incubated for 30 min at room temperature. After crosslinking, samples were reduced with 100 mM dithiothreitol (DTT) and separated on a 4-20% (Bio-Rad, TGX Stain-Free™ precast gels) SDS-PAGE. The oligomerization pattern was visualized using a Bio-Rad ChemiDoc XRS+ system.
# [4] = system: F. graminearum conidia and germlings; assay type: cell-based, Fusarium graminearum; details: DyLight550-labeled, 3μM, 3 hr, FIG. 17
# [5] = system: Colletotrichum higginsianum; assay type: cell-based; details: Example 6, FIG. 15
# F. graminearum = assay type: cell-based, Fusarium graminearum
# [6] = phospholipid binding / protein-lipid overlay; details: Example 6, PIP strip, 3 μg/ml protein, FIG. 18A
# Method: as §2
# F. virguliforme = assay type: cell-based, Fusarium virguliforme
# N. crassa = assay type: cell-based, Neurospora crassa
# [7] = target: the molecule itself; assay: BS3 cross-linking with PIP, SDS-PAGE; self-oligomerization
# Method: as §3
# [8] = activity of the indicated protein against Fusarium graminareum, Table 1, read-out: IC50 (nm)
# [9] = Example 2, PIP Strips, 1 μg/ml protein, FIG. 9
# [10] = Example 6, FIG. 14, read-out: IC50 value against F. graminearum
# [11] = Example 6, PIP strip, 3 μg/ml protein, FIG. 18A
molecule,measurement,setting,value
"MtDef5A: single 50-amino acid MtDef5 defensin peptide A, SEQ ID NO:4 (KLCQKRSTTWSGPCLNTGNCKRQCINVEHATFGACHRQGFGFACFCYKKC; listed as Medicago truncatula)","binding to PI3P, PI4P and PI5P",[1],much less affinity than MtDef5FL1
same,IC50,F. graminearum PH-1; [8],500 to 750 nM
same,"binding to PI3,4P2",[2]; [9],also binds
same,"binding to PI3,5P2",[2]; [9],also binds
same,"binding to PI4,5P2",[2]; [9],also binds
same,binding to PS,[2]; [9],fails to bind
"NaD1: Nicotiana alata defensin peptide, SEQ ID NO:81 (RECKTESNTFPGICITKPPCRKACISEKFTDGHCSKILRRCLCTKPC; listed as Nicotiana alata) [reference compound]",IC50,F. graminearum PH-1; [8],500 nM
"TPP3: Tomato (Solanum lycopersicum) defensin peptide, SEQ ID NO:83 (QQICKAPSQTFPGLCFMDSSCRKYCIKEKFTGGHCSKLQRKCLCTKPC; listed as Solanum lycopersicum) [reference compound]",IC50,F. graminearum PH-1; [8],500 nM
"MsDef1: Alfalfa (Medicago sativa) Defensin 1, SEQ ID NO:79 (RTCENLADKYRGPCFSGCDTHCTTKENAVSGRCRDDFRCWCTKRC; listed as Medicago sativa)","IC50, Fusarium culmorum growth",Fusarium culmorum,1 µg/mL
same,"IC50, Verticillium dahliae growth",Verticillium dahliae,4 µg/mL
"MtDef4: Medicago truncatula defensin peptide, SEQ ID NO:76 (RTCESQSHKFKGPCASDHNCASVCQTERFSGGHCRGFRRRCFCTTHC; listed as Medicago truncatula) [reference compound]",minimal inhibitory concentration (MIC or IC100) against F. graminearum,"F. graminearum PH-1; Example 6, FIG. 14",6 µM
same,IC50,F. graminearum PH-1; [10],750 to 1500 nM
B1,antifungal activity against Botrytis cinerea (Bci),Botrytis cinerea,potent antifungal activity
same,"binding to PI3P, PI4P and PI5P",[1],strongly binds; also recorded: significantly increases its binding affinity
same,"binding to PI3P, PI4P and PI5P (PIPs)","[1]; Example 6, PIP strip, 3 μg/ml protein, FIG. 18A, FIG. 22",strongly binds
same,amount of PIP per spot at which binding to all three PIPs was observed,"[1]; PIP Array, FIG. 18B",≤ 12.5 pmoles per spot
same,antifungal activity against Alternaria brassicicola,Alternaria brassicicola,potent antifungal activity
same,IC100 value against N. crassa,Neurospora crassa,0.18 µM
same,concentration inhibiting conidial germination completely (100% growth inhibition),Neurospora crassa,0.18 µM
same,minimal inhibitory concentration (MIC or IC100) against Neurospora crassa,Neurospora crassa,0.7 to 0.75 µM and 0.75 µM
same,IC50,Neurospora crassa; read-out: IC50 value against N. crassa,90 nM
same,IC50,Neurospora crassa; read-out: IC50 value against Neurospora crassa,250 to 300 nM
same,IC100 value against F. virguliforme,Fusarium virguliforme,0.18 µM
same,antifungal activity against F. virguliforme,Fusarium virguliforme,potent antifungal activity
same,concentration inhibiting conidial germination completely (100% growth inhibition),Fusarium virguliforme,0.18 µM
same,IC50,Fusarium virguliforme; read-out: IC50 value against F. virguliforme,90 nM
same,oligomerization in presence of PIPs,[3],formed higher-order oligomers only in the presence of PIPs; also recorded: forms higher order oligomers in presence of PIPs
same,internalization and localization in fungal cells,[4],is internalized by fungal cells; also recorded: diffuse localization within the cytoplasm
same,IC100 value against F. graminearum,"F. graminearum PH-1; Example 1, FIG. 5A",0.18 µM
same,IC50,"F. graminearum PH-1; Example 1, FIG. 5A, read-out: IC50 value against F. graminearum",90 nM
same,minimal inhibitory concentration (MIC or IC100) against F. graminearum,"F. graminearum PH-1; Example 6, FIG. 14",0.75 µM
same,minimal inhibitory concentration (MIC or IC100) against F. graminearum,"F. graminearum PH-1; Example 6, FIG. 14, listed as MtDef5",0.7 to 0.75 µM
same,IC50,F. graminearum PH-1; [10],250 to 300 nM
same,IC50,F. graminearum PH-1; [8],90 nM
same,"potency relative to MtDef4, based on the MIC values",F. graminearum PH-1; against F. graminearum,3 to 5 fold
same,concentration inhibiting conidial germination completely (100% growth inhibition),"F. graminearum PH-1; microscopic observation after 14-16 hr incubation, FIG. 5B",0.18 µM
same,"binding to PI3,4P2",[2]; [9],binds to a lesser extent
same,"binding to PI3,5P2",[2]; [9],binds to a lesser extent
same,"binding to PI4,5P2",[2]; [9],binds to a lesser extent
same,binding to PS,[2]; [9],"binding to PS, is generated"
same,"binding to PI3,5P2",[2]; [11],binds to a lesser extent
same,"binding to PI4,5P2",[2]; [11],binds to a lesser extent
same,binding to phosphatidylserine (PS),[2]; [11],binds to a lesser extent
same,antifungal activity against Colletotrichum higginsianum,[5],potent antifungal activity
same,SG uptake (plasma membrane permeabilization),"F. graminearum; 0.180 μM (IC100) protein + 0.5 μm SG, 2 hrs, FIG. 6",SG uptake was observed
same,SG uptake in hyphal cells,"F. graminearum; 0.75 μM MtDef5FL1, 3 hr, FIG. 16",SG uptake was visible
same,binding to phoshatidic acid (PA),[6],binds to a lesser extent
same,SG uptake (plasma membrane permeabilization),F. virguliforme,SG uptake was observed
same,SG uptake (plasma membrane permeabilization),N. crassa,SG uptake was observed
same,SG uptake in hyphal cells,N. crassa,SG uptake was visible
B2,oligomerization in presence of PIPs,[3],no formation of higher order oligomers
same,binding result,[7],no binding (tested: 1.5 mg/ml protein)
